According to publication PMC8651795, “eIF2B-capturing viral protein NSs suppresses the integrated stress response” (Nature Communications, 2021):

Molecular target: T1, human eIF2B (heterodecamer of two copies each of the α-, β-, γ-, δ- and ε-subunits) (human, UniProt Q14232;P49770;Q9NR50;Q9UI10;Q13144)
T1 construct: also called eIF2B decamer; copies: 2 + 2 + 2 + 2 + 2
Assay: MST
Conditions: both partners purified

B1: Sandfly fever Sicilian virus (SFSV) nonstructural protein NSs, wild type (natural protein)
chain: MNSQYMFDYPAINIDVRCHRLLSSVSYVAYNKFHTHDVSTYEHCEIPLEKLRLGFGRRNSLADFYSLGELPASWGPACYFSSVKPMMYTFQGMASDLSRFDLTSFSRKGLPNVLKALSWPLGIPDCEIFSICSDRFVRGLQTRDQLMSYILRMGDSHSLDECIVQAHKKILQEARRLGLSDEHYNGYDLFREIGSLVCLRLINAEPFDTASSGEALDVRTVIRSYRASDPSTGLTEYGNSLWTPIHSHVDENDESSSDSDF
notes: also called SFSV NSs; wild-type SFSV NSs; source: E. coli T7 Express, purified (His-tag resin, HiTrap Q, Superdex 200); not shown: His-tag, C-terminal, kept
Kd: 16.9 ± 2.8 nM
